Our source for the protein production values is a protein production outcome set (Wang et al. 2014).

The series is described as follows: label from the status in PepcDB records.
“ISDRKMAEIALRESEARFRNLFESNIVGMFFASNQGEIFDANDRFLQMIGFTKEELDLGLVHWDRLTPPEYDQKDQEIIARLRNHETPEPWQKEYYRKDGSRIPVLVGVASIDVELEYTVCIVVDMT”: the protein production result was “failed”. Under “ISEWARKEQAIRNSEANFRDIFASIKDGLLVLDEDNYICYANAQAVKLLNCTLEELVGTIGSPLEDTEFSLLVDDGTIYTVDVSVTEITWYGQTAKLVSLRDISDRKRMENQLRENQNKYYRLLENLD” stands “failed”; under “ITKRNVELRVDDSLMRVYVASPKPVGVYPGIVFYSDIYQLGSPIIRLANYLAGFGYVVAAPEIFHRLEPIGLVIEPDDLGRMRGNDNARRTAIAEYDADSRAVIDFLKAETTVNANK”, “failed”.

As to “IYLYATATGEVRQMHGITVDRERERRVPDHHQLDSDTTTHSHSVKNQEYYKLLHENDTWKLSQSLKDRPFVALNPTRKAQMLAHLCNDLLMNKAVLRQIDGSLETCAQMRKEKYMTDMKVRKYKALHMRKARIEAYERAQAEREAAMQALM”, the protein production entry is on record as “failed”. For “KAKPVATAPIPGTPWCVVWTGDERVFFYNPTTRLSMWDRPDDLIGRADVDKIIQEPPHKK”, the protein production entry is on record as “not failed”. Under “KALAHAKNDSVAVATDDLKEGEEIQVAFLDNNEKTKITTAEVIPLGHKISLKDIKKGENVIEYGEVIGAATKDIKRGEHVHIHNIKSLRW” stands “failed”. Under “KEETEIIEGEVVEIQIDRPATGTGSKVGKLTLKTTEMETIYDLGTKMIESLTKDKVQAGDVITIDKATGKISKLGRSFTRAR” stands “not failed”; under “KEYNIVITGVGGQGILTAANILGWAALRAGYKVRVGEIHGMSQRFGSVIAYVRFGEEVYGAMVPEGKADVILSFEPVEALRYINYLKKGGLVFTNARPIPPVQVSMGIARYPSLEEIKRIVEEDFGGRFLAFDAEKLAIEAGHVVTTNVVLIGALTQTPGFPLSEDHVRDVIKLNVPPKAVEINMRAFDLGVKT”, “failed”; under “KGMIRPRGLNQQRYVKEVLSNDINFGIGPAGTGKTYLAVACAVDALEREQIRRILLVRPAVEAGEKLGFLPGDLAQKIDPYLRPLYDALYEMLGFEYVAKLIEKQVIEVAPLAYMRGRTLNNSFIILDESQNTTVEQMKMFLTRIGFGSTAVITGDITQVDLPKGTRSGLTHVIDVLKDVPGISFTHFKPKDVVRHPLVQRIVEAYERFDDQLSDGPSGNNG”, “not failed”. Turning to “KIGKHTIKFPIFQGGMGVGISWDELAGNVAKEGALGVISAVGTGYYKNMRFVERIVAKKPFEALNFYSKKALNEIFANARKICGNNPLGANILYAINDYGRVLRDSCEAGANIIITGAGLPTNMPEFAKDFSDVALIPIISSAKALKILCKRWSDRYKRIPDAFIVEGPLSGGHQGFKYEDCFKEEFRLENLVPKVVEASKEWGNIPIIAAGGIWDRKDIDTMLSLGASGVQMATRFLGTKECDAKVYADLLPTLKKEDILLIKSPVGYPARAINTGVIKRIEEGNAPKIACVSNCVAPCNRGEEAKKVGYCIADGLGRSYLGNREEGLYFTGANGYRVDKIISVHELIK”, the protein production entry was “failed”. Under “KISNIFEDVEFCVMSGTDSQPKPDLENRIAEFGGYIVQNPGPDTYCVIAGSENIRVKNIILSNKHDVVKPAWLLECFKTKSFVPWQPRFMIHMCPSTKEHFAREYD” stands “not failed”; under “KKKVLIYGAGSAGLQLANMLRQGKEFHPIAFIDDDRKKHKTTMQGITIYRPKYLERLIKKHCISTVLLAVPSASQVQKKVIIESLAKLHVEVLTIPNLDDLVNGKLSIGQLKEVSIDDLLGRVAVTPQAELMEANIKD”, “not failed”. Under “KKTEWSREEEEKLLHLAKLMPTQWRTIAPIIGRTAAQCLEHYEFLLDKAAQRD” stands “not failed”. In the case of “KKVCVDTCVVIDGRITELIERGKLKDATIIIPEAVVSELEYQANMGREIGYKGIEELRKLIEKASEHNIKVEYYGERPTREEIFLAKSGEIDAMIRKVAKETNSILLTSDWIQYNLAKAQGIEAYFLEAAEEEVELVLD” it was “not failed”; in that of “KKYVDNLKETISRVEVSRDNFLTILNSLSEPIFILDREGKITFLNEIARELVQGRINPEGRPYYEIFEDYYINEMVEETIKSEEPQEGTLVTYVGNEKKYFHVKVIPVELKSGDKIFVILFHDVTKERKLDEMRREFIATVSHEL”, “failed”. Regarding “KLAYRHLIQPESAVRKLMILVNGRAENMLKWSELAYDFYHQGYDVLLFDHRGQGYSQRIIPQKGHLDEFRFYVDDMAKIIEKVTALFSYSTQHLLAHSMGALIATYYLANYDHHINKAVLSSPFYGILLKHPIRDELIITLMNILGQGERYVFGKGAYQQAHLEYNELTFCKTRMKWMNRINRKNPAINLGGPTFRWVHLCLNAIKRLPKVIPKIEIPILILQAEKEKIVDNKNLEKLTALFPNARCEVILNAKHEVLFEKDNVRRNVLKSVNHFLN”, the protein production result is listed as “failed”.

In the case of “KLRQWLIDQIDSGKYPGLVWENEEKSIFRIPWKHAGKQDYNREEDAALFKAWALFKGKFREGIDKPDPPTWKTRLRCALNKSNDFEELVERSQLDISDPYKVYRIVPE”, the protein production result is reported as “not failed”. In the case of “KLYGSIFTGASKFRCKDCSAAYDTLVELTVHMNETGHYRDDNHETDNNNPKRWSKPRKRSLLEMEGKEDAQKVLKCMYCGHSFESLQDLSVHMIKTKHYQKV” it was “not failed”; in that of “KMLMPIEFELVESAPLFHELLHLRDAVGLPSIGVDMADGHPLQPLYWVSIHLTAKQDKNTATIVATACVYGDNANHFAIEDFIVLPEYRHIGLGKIILERVMAFVDDRATLGTYVSINTHGEQEKLCTDYGFAHSH”, “failed”; in that of “KNVNRVLSAEALKPGMLLTGTVSSLEDHGYLVDIGVDGTRAFLPLLKAQEYIRQKNKGAKLKVGQYLNCIVEKVKGNGGVVSLSVGHSEVSTAIATEQQSWNLNNL”, “not failed”. Under “KQKRMQAMIVTNHPEKVIEKIHKKLHRGATMIHDAEGTYNHERKAVLITVITRAEFNEFKQIMTQVDPSSFVSVSENVHILGRFVEIDN” stands “failed”; under “KQVAEIGDRAVELVHDGSLLAPEDMGPYVAPIAFNALPFAGNLVEDGTEETDEEQKLRNESRKILGLPDLKVAGTCVRVPVFTGHTMVVHAEFNNAITPEQAREVLGNAAGVDVVDVPTPLAAAGVDNSLVGRIRQDQTVDDNKGLVFVVSGDNLRKGAALNAIQIAELLV”, “failed”. Under “KRASSKWLVCIGTSPSSAKLIRWTARTAEAFRAPWTALYIENEENDYMTKAEKKCLRETMELAERLGAEIVTLAGHDIAETVAEYARLTGVTNIVVGKSRRRMGLRSLFEEDFEDRLITHLDNVDMHIIP” stands “failed”.

On to “KRGRSVLVLDHAKKPGRKILISGGGRCNFTNYDVSASNYLCQNPHFVKSALSQYTNWDFISMVSKHGIEFEERDHGQLFCVDAFTAKDIVKMLLAECDMPNIQQRYQCDVHTIEKTEEGFRLHAGTEPVECESLVVATGGLSMPKLGATPFGYKVAEQ”, for which the protein production result is “failed”. In the case of “KRKTKEQLAILKSFFLQCQWARREDYQKLEQITGLPRPEIIQWFGDTRYALKHGQLKWFRDNA”, the protein production result is on record as “not failed”. On to “KRRMELVGEYAGGITLIEDFAHHPTAIRLTLGAIAEHYPGRRIIACFEPRSNTTSRNIFQHELSECFGDAAIVVLGKVNRPERYAPEERLDAALLCRELKANGKRVFAAGSENYPEDIVRFIEAEQQPGDVVVLLSNGSFSGLKEMLAESFQKNS”, for which the protein production entry is listed as “failed”. Under “KTFMIGVTSCISGDGKSFCSHNLARIYAISGKKTLLIRGDMRKAFNAPANLIPQGSMGLSQHLIGMATIDQIIHKGEIENLYQIIPGPVPPNASELVASQKMEEFIRIMKDKFEVVIMDSPPVGLVSDYMSVIKHIDANLYIVRYDYTPKETLEAIKDLKNKYPAQSHSIIFNGIT” stands “failed”.

Take “KVILYARVSSSTQKDELVNQVKYLEEQVKEYDLVITDIGSGLNMKRKGFLKLLRMILNNEVSRVVVAYPDRLVRVGFEILEEVCKAHNCEIVVLNQEDKEEELVEDLMSALVSFSGKLYGMRSHEYEKVKKCAEELKNWKI”: the protein production result is reported as “not failed”.
